Biological target: the molecule itself
Assay: AUC; sedimentation velocity, 0.5 mg/ml SaNanE in 20 mM Tris pH 8.0, 150 mM NaCl, 50,000 rpm, 20 °C; c(s) and c(M) models in SEDFIT

B1: N-acetylmannosamine-6-phosphate 2-epimerase (NanE) from Staphylococcus aureus, wildtype (enzyme, S. aureus USA300)
chain: MLPHGLIVSCQALPDEPLHSSFIMSKMALAAYEGGAVGIRANTKEDILAIKETVDLPVIGIVKRDYDHSDVFITATSKEVDELIESQCEVIALDATLQQRPKETLDELVSYIRTHAPNVEIMADIATVEEAKNAARLGFDYIGTTLHGYTSYTQGQLLYQNDFQFLKDVLQSVDAKVIAEGNVITPDMYKRVMDLGVHCSVVGGAITRPKEITKRFVQIMED
notes: N-acetylmannosamine-6-phosphate 2-epimerase (NanE) of S. aureus USA300; also called SaNanE; wildtype SaNanE
  stoichiometry N: 2

Source: publication PMC8482478, “N-acetylmannosamine-6-phosphate 2-epimerase uses a novel substrate-assisted mechanism to catalyze amino sugar epimerization” (The Journal of Biological Chemistry, 2021)
